{
  "source": "patent US6962971B2",
  "about": "“Chemokines and methods for inducing the differentiation of fibroblasts to myofibroblasts” (The Regents of the University of California, priority 2001, dated 2005)",
  "molecules": {"B1": {"name": "cCAF: CXC chemokine chicken Chemotactic and Angiogenic Factor, full-length, SEQ ID NO:2; purified or synthesized (protein)", "chain": "LSQGRTLVKMGNELRCQCISTHSKFIHPKSIQDVKLTPSGPHCKNVEIIATLKDGREVCLDPTAPWVQLIVKALMAKAQLNSDAPL", "modifications": "Gallusgallus", "notes": "purified or synthesized"}},
  "key": {"[1]": {"tested_on": "primary chicken embryonic connective tissue fibroblasts", "assay": "Fibroblast growth assay", "type": "cell-based", "procedure": "Primary chicken embryonic connective tissue fibroblasts (CEFs) were cultured as previously described in Martins-Green and Feugate (1998). Briefly, these fibroblasts were isolated from 10-day-old chicken embryo body walls, plated at 6×10^6 cells/100 mm plate and cultured for 4 days in 199 medium with 5% donor calf serum, 1% chick serum and 0.3% tryptose phosphate broth. These cultures were passaged once (secondary cultures); the cells were plated at 0.4×10^6 cells/35 mm plate in 199/tryptose phosphate broth and 2% donor calf serum.\nSecondary fibroblasts were plated at 0.4×10^6 cells/35 mm plate and cCAF was added to experimental plates. For each experiment, plating efficiency was determined by trypsinizing plates four hours after plating. Cells were counted with a Coulter particle counter to confirm even plating of cells. The media was replaced approximately every 16 hr with 1 ml of […] 199 medium containing 0.3% tryptose phosphate broth and 2% donor calf serum, and 100-1000 ng cCAF [9-90 nM] or C- or N-peptide [64-640 nM] was added to the experimental plates, whereas, control plates contained media only. On day 3, plates were trypsinized to remove all cells and cells were counted using a Coulter counter. To test for specificity, anti-cCAF rabbit serum was pre-incubated with cCAF (3 μl serum/750 ng cCAF [68 nM] or N-peptide [480 nM]) for 1 hr at room temperature before being added to cells."}, "[2]": {"tested_on": "primary chicken embryonic connective tissue fibroblasts", "assay": "Acridine orange/ethidium bromide staining for apoptotic cells", "type": "cell-based", "conditions": "cCAF-treated fibroblasts", "procedure": "Plates of fibroblasts treated with cCAF as described above were rinsed twice with PBS and incubated in 0.1 mg/ml acridine orange/ethidium bromide in PBS for 1 min. After rinsing twice with PBS and adding a cover slip, the cells were immediately viewed by epifluorescence microscopy and random fields were photographed. The number of cells with blebbing cytoplasm and fragmented nuclei were counted from the entire field of each photograph."}, "CEFs": {"tested_on": "CEFs", "assay": "Trypan blue staining for necrotic cells", "type": "cell-based", "conditions": "cCAF-treated fibroblasts", "procedure": "The supernatant of treated and untreated CEFs was collected, the cells centrifuged to a pellet and resuspended in a small volume of medium. 1% trypan blue was added to a final concentration of 0.5% trypan blue. Cells were stained for 5min and then counted in a hemocytometer. Necrotic cells stained blue."}, "α-SMA mRNA": {"tested_on": "α-SMA mRNA", "assay": "RT-PCR for α-SMA mRNA in fibroblasts", "type": "cell-based, chicken", "procedure": "Total RNA for α-SMA was extracted using TRIzol reagent from untreated fibroblasts, fibroblasts treated with 750 ng/ml cCAF or fibroblasts treated for varying periods of time with cCAF. The RT-PCR procedure was performed using the Promega Access RT-PCR System, which is designed to finish reverse transcription (RT) and polymerase chain reaction (PCR) in one tube, and following the protocol recommended by Promega, except that 1.5 times the recommended amount of dNTP, reverse transcriptase and Tfl DNA polymerase were used to ensure strong synthesis of 18S ribosomal RNA. The reaction conditions included: 1 μg total RNA, first strand synthesis at 48° C. for 45 min, then 95° C. for 5 min to inactivate the reverse transcriptase, followed by DNA amplification at 95° C. for 45 sec, 58° C. for 60 sec, 68° C. for 90 sec for 40 cycles. Finally, 68° C. for 7 min to extent the strands. 2 μl of Quantum mRNA classic 18S primers (Ambion) were added to reaction to produce the control band. The followin primers used for the amplification of α-SMA: […]\nRT-PCR products were analyzed by electrophoresis in 1.5% agarose and the density of the bands was measured by densitometry using Glyko BandScan."}, "[3]": {"tested_on": "Full-thickness excision wounds on the underside of the wings of 2-week-old chicks", "assay": "Wounding experiment: closure of excision wounds", "type": "in vivo, chicken", "conditions": "1 μg every other day", "procedure": "Full-thickness excision wounds (approximately 0.5×0.5 cm) were made, using a scalpel blade, on the underside of the wings of 2-week-old chicks. The left wing was treated with vehicle alone (water), and the right wing with […] cCAF [90 nM]. The wounds were photographed immediately after wounding and then covered with Biocclusive bandage. 50 μl vehicle (water) or cCAF was deposited through the bandage onto the wound using a 30-gauge needle. This procedure was repeated the next day and every other day thereafter. On days 3, 5 and 7, the bandages were removed and the wounds were photographed before replacing the bandages and applying the treatment again."}, "[4]": {"tested_on": "granulation tissue of excision wounds", "assay": "Histology of excision wounds (Masson Trichrome)", "type": "in vivo, chicken", "conditions": "1 μg cCAF every other day; versus vehicle", "procedure": "(§1) At the specified time points, chickens were euthanized with sodium pentobarbitol. The wounded wings were collected and fixed for 18 hrs in 4% paraformaldehyde and decalcified for 3 days in 5% formic acid, 2.5% formaldehyde at 4° C. The tissue was embedded in paraffin and sectioned. Sections were stained with Masson Trichrome to visualize interstitial collagen. Other sections were immunolabeled for α-SMA. Sections were deparaffinized with 3×15 min washes in Hemo-De and rehydrated in 5 min washes of ethanol (100%, 95%, 70%, 50%, 30%). After rinsing with PBS, sections were fixed in 2% paraformaldehyde 1 hr. General autofluoresence and non-specific staining were blocked by 30 min in 0.1M glycine in PBS, followed by 30 min in 1% Evans Blue in PBS to quench red blood cell autofluorescence. Sections were incubated with α-SMA antibody in 1% BSA in PBS (1:50) for 2 hr at room temperature. After 3×10 min washes in 0.1% BSA in PBS, the sections were incubated for 40 min with anti-mouse Alexa antibody in 1% BSA in PBS (1:200). They were then washed and mounted with Vectashield."}, "α-SMA": {"tested_on": "α-SMA", "assay": "Immunostaining for α-SMA in granulation tissue of excision wounds", "type": "in vivo, chicken", "conditions": "1 μg cCAF every other day; versus vehicle", "procedure": "as §1"}, "[5]": {"tested_on": "chicken chorioallantoic membrane (CAM)", "conditions": "cited from earlier work"}},
  "note": "“And” between values parts separate entries of the source, which are not always exact repeats. Equal entries are not always repeated. “Also recorded” adds a separate entry of the source.",
  "data": [
    {"molecule": "B1", "values": [
      {"measurement": "time required for the decrease in cell numbers to be detected", "setting": "[1]", "result": "2 to 3", "unit": "days"},
      {"measurement": "effect on fibroblast growth / cell numbers", "setting": "[1]; 3 days treatment, 2% donor calf serum", "result": "suppresses fibroblast proliferation in a dose-dependent pattern"},
      {"measurement": "dose of greatest (maximum) suppression of fibroblast proliferation", "setting": "[1]; 3 days treatment, increasing doses of cCAF", "result": "750 ng/mL and 500 to 750 ng/mL"},
      {"measurement": "time of greatest suppression of proliferation", "setting": "[1]; after plating, not shown", "result": 2, "unit": "days"},
      {"measurement": "suppression of fibroblast proliferation compared to untreated cells", "setting": "[1]; fibroblasts cultured in the presence of serum (2% donor calf serum), p<0.01", "result": 25, "unit": "%"},
      {"measurement": "fibroblast growth relative to untreated cells", "setting": "[1]; of untreated cells", "result": "about 75%"},
      {"measurement": "apoptotic morphology (cytoplasmic blebbing, nuclear fragmentation)", "setting": "[2]", "result": "do not show the characteristics of apoptotic cells; also recorded: compact cytoplasm and an intact nucleus characteristic of healthy cells"},
      {"measurement": "necrotic cell death", "setting": "CEFs", "result": "does not stimulate cell necrosis; also recorded: does not cause cells to undergo necrosis"},
      {"measurement": "time by which α-SMA mRNA drops below control levels", "setting": "α-SMA mRNA; 750 ng/ml cCAF", "result": "≤ 24", "unit": "h"},
      {"measurement": "time to increase in α-SMA mRNA levels", "setting": "α-SMA mRNA; 750 ng/ml cCAF", "result": "≤ 1", "unit": "h"},
      {"measurement": "time α-SMA mRNA levels remain elevated after treatment", "setting": "α-SMA mRNA; 750 ng/ml cCAF", "result": "up to 12 hr"},
      {"measurement": "period with increasing amounts of α-SMA mRNA relative to control", "setting": "α-SMA mRNA; after initiation of treatment, normalized to 18S rRNA", "result": "1 to 12", "unit": "h"},
      {"measurement": "wound closure at day 3 (days 0-3)", "setting": "[3]; topical, versus vehicle (H2O) on contralateral wing", "result": "closed to a significantly greater degree than the vehicle-treated wounds"},
      {"measurement": "wound closure at day 5", "setting": "[3]; versus vehicle", "result": "closure of the control wounds was still less than that of the experimental wounds"},
      {"measurement": "wound closure at day 7", "setting": "[3]; versus vehicle", "result": "completely closed"},
      {"measurement": "density of granulation tissue, days 3 and 5", "setting": "[4]", "result": "denser repair tissue than the control wounds; also recorded: appears more dense earlier in wound healing"},
      {"measurement": "granulation tissue at day 7", "setting": "[4]", "result": "minimal; also recorded: appear to be already remodeling"},
      {"measurement": "cells labeling for α-SMA in granulation tissue, day 3", "setting": "α-SMA", "result": "numerous cells labeling for α-SMA; also recorded: many more cells that label for α-SMA"},
      {"measurement": "cells labeling for α-SMA in granulation tissue, day 5", "setting": "α-SMA", "result": "many more myofibroblasts than the control wounds; also recorded: many more cells staining for α-SMA"},
      {"measurement": "cells labeling for α-SMA in granulation tissue, day 7", "setting": "α-SMA", "result": "continue to have more labeled cells than do control wounds"},
      {"measurement": "angiogenesis in the CAM", "setting": "[5]; high concentrations, in the absence of leukocyte chemotaxis", "result": "stimulates blood vessel sprouting from the preexisting vessels of the CAM"},
      {"measurement": "leukocyte chemotaxis in the CAM", "setting": "[5]; low doses", "result": "chemotactic for monocyte/macrophages and lymphocytes"}
    ]}
  ]
}
